# T1: human FAP (huFAP) expressed on cells (human, UniProt Q12884 1-760)
# T1 construct: also called WI-38 cells
# T1 sequence: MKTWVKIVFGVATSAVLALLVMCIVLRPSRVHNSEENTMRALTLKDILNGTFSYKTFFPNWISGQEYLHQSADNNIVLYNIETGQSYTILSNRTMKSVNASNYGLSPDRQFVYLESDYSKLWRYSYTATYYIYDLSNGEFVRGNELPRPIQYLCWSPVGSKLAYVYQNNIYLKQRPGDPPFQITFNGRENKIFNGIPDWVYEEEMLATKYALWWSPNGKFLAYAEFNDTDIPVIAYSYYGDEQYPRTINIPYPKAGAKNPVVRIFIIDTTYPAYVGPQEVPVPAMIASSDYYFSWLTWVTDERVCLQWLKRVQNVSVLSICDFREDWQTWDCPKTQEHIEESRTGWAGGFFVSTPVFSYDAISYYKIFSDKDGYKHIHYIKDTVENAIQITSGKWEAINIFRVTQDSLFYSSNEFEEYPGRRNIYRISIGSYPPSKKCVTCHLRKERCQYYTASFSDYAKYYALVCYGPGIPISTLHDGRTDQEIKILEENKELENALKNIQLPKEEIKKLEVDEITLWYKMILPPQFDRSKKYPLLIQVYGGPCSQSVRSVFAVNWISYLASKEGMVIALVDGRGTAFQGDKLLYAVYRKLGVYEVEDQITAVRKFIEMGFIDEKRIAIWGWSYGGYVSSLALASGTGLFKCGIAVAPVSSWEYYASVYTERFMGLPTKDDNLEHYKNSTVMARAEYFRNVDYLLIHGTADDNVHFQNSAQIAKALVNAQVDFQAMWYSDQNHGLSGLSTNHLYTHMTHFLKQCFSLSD
# Target: T1, human FAP (huFAP) expressed on cells
# Assay: FACS titration (10 ug/ml to 3.16 ng/ml) on WI-38 cells; positive control sibrotuzumab analog
# Description: The human anti-FAP panel was tested on WI-38 cells (endogenously expressing huFAP) and binding was measured by FACS.
# The target cells were harvested, counted, and centrifuged for 5 min at 300 g at 4° C. Cells were then resuspended in FACS buffer at a concentration of 1×10⁶ cells/ml and transferred (200,000 cells/well) to a U-bottom 96-well FACS plate (BD, cat. #353910). Cells were washed by adding 200 μl PBS and centrifuged for 3 min at 300 g at 4 °C. Cells were then centrifuged for 3 min at 300 g at 4° C. and supernatant was discarded. Antibodies were diluted in an 8 steps, semi-log dilution series ranging from 10 ug/ml to 3.16 ng/ml in FACS buffer (50 μ/well), mixed, and incubated for 30 min at 2-8° C. in the dark. A titration of the sibrotuzumab analog was included as positive control and used to normalize data. The negative control TT antibody was included as negative control. Cells were washed by adding 150 μl FACS buffer and centrifuged for 3 min at 300 g at 4° C. Supernatant was discarded, and cells were washed again by adding 200 μl FACS buffer to the plate. Cells were then centrifuged for 3 min at 300 g at 4° C. and afterwards the supernatant was discarded. […] Fluorescence intensity of the cells was then measured on the iQue VBR (Intellicyt).
binder,measurement,value
"anti-human FAP bivalent monospecific IgG comprising heavy chain variable region SEQ ID NO: 19 (antibody, V domains shown, IgG1 format, common light chain VK1-39/JK1) VH: EVQLVESGGGLVKPGGSLRLSCAASGFPFNYAWMSWVRQAPGKGLEWVGRIKPKTSGGATDYAAPVKDRFTISRDDSRNTLYLQMNSLKTEDTAVYYCSAREDIWNFFFDLWGQGTLVTVSS VL: not shown",binding result,binds
